To fix the notation:
B1: CE115HA000 K75T one-arm antibody (antibody, human IgG1, kappa, L234A L235A, N297A, name in Kabat numbering)
heavy: QVQLVESGGGVVQPGRSLRLSCAASGFTFSNAWMHWVRQAPGKGLEWVAQIKAKSNNYATYYAESVKGRFTISRDDSTNSLYLQMNSLKTEDTAVYYCRYVHYGAYYGVDAWGQGTTVTVSSASTKGPSVFPLAPSSKSTSGGTAALGCLVKDYFPEPVTVSWNSGALTSGVHTFPAVLQSSGLYSLSSVVTVPSSSLGTQTYICNVNHKPSNTKVDKKVEPKSCDKTHTCPPCPAPEAAGGPSVFLFPPKPKDTLMISRTPEVTCVVVDVSHEDPEVKFNWYVDGVEVHNAKTKPREEQYASTYRVVSVLTVLHQDWLNGKEYKCKVSNKALPAPIEKTISKAKGQPREPQVYTLPPSRCELTKNQVSLSCAVKGFYPSDIAVEWESNGQPENNYKTTPPVLDSDGSFFLVSKLTVDKSRWQQGNVFSCSVMHEALHNHYTQKSLSLSPDYKDDDDK
chain: EPKSSDKTHTCPPCPAPELLGGPSVFLFPPKPKDTLMISRTPEVTCVVVDVSHEDPEVKFNWYVDGVEVHNAKTKPREEQYNSTYRVVSVLTVLHQDWLNGKEYKCKVSNKALPAPIEKTISKAKGQPREPQVCTLPPSRDELTKNQVSLWCLVKGFYPSDIAVEWESNGQPENNYKTTPPVLDSDGSFFLYSKLTVDKSRWQQGNVFSCSVMHEALHNRYTQKSLSLSP
light: DIVMTQSPLSLPVTPGEPASISCRSSQSLVHSNRNTYLHWYQQKPGQAPRLLIYKVSNRFSGVPDRFSGSGSGTDFTLKISRVEAEDVGVYYCGQGTQVPYTFGQGTKLEIKRTVAAPSVFIFPPSDEQLKSGTASVVCLLNNFYPREAKVQWKVDNALQSGNSQESVTEQDSKDSTYSLSSTLTLSKADYEKHKVYACEVTHQGLSSPVTKSFNRGEC
B2: CE115HA000 N31W one-arm antibody (antibody, human IgG1, kappa, L234A L235A, N297A, name in Kabat numbering)
heavy: B1 heavy with N31W, T78K
chain: B1 chain
light: B1 light
B3: CE115HA000 N53A one-arm antibody (antibody, human IgG1, kappa, L234A L235A, N297A, name in Kabat numbering)
heavy: B1 heavy with N56A, T78K
chain: B1 chain
light: B1 light
B4: CE115HA000 N53K one-arm antibody (antibody, human IgG1, kappa, L234A L235A, N297A, name in Kabat numbering)
heavy: B1 heavy with N56K, T78K
chain: B1 chain
light: B1 light
B5: CE115HA000 N53Y one-arm antibody (antibody, human IgG1, kappa, L234A L235A, N297A, name in Kabat numbering)
heavy: B1 heavy with N56Y, T78K
chain: B1 chain
light: B1 light
B6: CE115HA000 N31Y one-arm antibody (antibody, human IgG1, kappa, L234A L235A, N297A, name in Kabat numbering)
heavy: B1 heavy with N31Y, T78K
chain: B1 chain
light: B1 light
B7: CE115HA000 N31D one-arm antibody (antibody, human IgG1, kappa, L234A L235A, N297A, name in Kabat numbering)
heavy: B1 heavy with N31D, T78K
chain: B1 chain
light: B1 light
B8: CE115HA000 N54Q one-arm antibody (antibody, human IgG1, kappa, L234A L235A, N297A, name in Kabat numbering)
heavy: B1 heavy with N57Q, T78K
chain: B1 chain
light: B1 light
B9: CE115HA000 L78I one-arm antibody (antibody, human IgG1, kappa, L234A L235A, N297A, name in Kabat numbering)
heavy: B1 heavy with T78K, L81I
chain: B1 chain
light: B1 light
B10: CE115HA000 N53D one-arm antibody (antibody, human IgG1, kappa, L234A L235A, N297A, name in Kabat numbering)
heavy: B1 heavy with N56D, T78K
chain: B1 chain
light: B1 light
B11: CE115HA000 N31Q one-arm antibody (antibody, human IgG1, kappa, L234A L235A, N297A, name in Kabat numbering)
heavy: B1 heavy with N31Q, T78K
chain: B1 chain
light: B1 light
B12: CE115HA000 N54F one-arm antibody (antibody, human IgG1, kappa, L234A L235A, N297A, name in Kabat numbering)
heavy: B1 heavy with N57F, T78K
chain: B1 chain
light: B1 light
B13: CE115HA000 N53G one-arm antibody (antibody, human IgG1, kappa, L234A L235A, N297A, name in Kabat numbering)
heavy: B1 heavy with N56G, T78K
chain: B1 chain
light: B1 light
B14: CE115HA000 N31F one-arm antibody (antibody, human IgG1, kappa, L234A L235A, N297A, name in Kabat numbering)
heavy: B1 heavy with N31F, T78K
chain: B1 chain
light: B1 light
B15: CE115HA000 N31H one-arm antibody (antibody, human IgG1, kappa, L234A L235A, N297A, name in Kabat numbering)
heavy: B1 heavy with N31H, T78K
chain: B1 chain
light: B1 light
B16: CE115HA000 N54G one-arm antibody (antibody, human IgG1, kappa, L234A L235A, N297A, name in Kabat numbering)
heavy: B1 heavy with N57G, T78K
chain: B1 chain
light: B1 light
B17: CE115HA000 N54L one-arm antibody (antibody, human IgG1, kappa, L234A L235A, N297A, name in Kabat numbering)
heavy: B1 heavy with N57L, T78K
chain: B1 chain
light: B1 light
B18: CE115HA000 N31I one-arm antibody (antibody, human IgG1, kappa, L234A L235A, N297A, name in Kabat numbering)
heavy: B1 heavy with N31I, T78K
chain: B1 chain
light: B1 light
B19: CE115HA000 N31K one-arm antibody (antibody, human IgG1, kappa, L234A L235A, N297A, name in Kabat numbering)
heavy: B1 heavy with N31K, T78K
chain: B1 chain
light: B1 light
B20: CE115HA000 N31R one-arm antibody (antibody, human IgG1, kappa, L234A L235A, N297A, name in Kabat numbering)
heavy: B1 heavy with N31R, T78K
chain: B1 chain
light: B1 light
B21: CE115HA000 N54D one-arm antibody (antibody, human IgG1, kappa, L234A L235A, N297A, name in Kabat numbering)
heavy: B1 heavy with N57D, T78K
chain: B1 chain
light: B1 light
B22: CE115HA000 N31A one-arm antibody (antibody, human IgG1, kappa, L234A L235A, N297A, name in Kabat numbering)
heavy: B1 heavy with N31A, T78K
chain: B1 chain
light: B1 light
notes: one-arm antibody: altered VH on pE22Hh, Fc-only chain Kn010G3, GLS3000 on kappa; the same build holds for m3 to m260
B23: CE115HA000 N53Q one-arm antibody (antibody, human IgG1, kappa, L234A L235A, N297A, name in Kabat numbering)
heavy: B1 heavy with N56Q, T78K
chain: B1 chain
light: B1 light
B24: CE115HA000 N31G one-arm antibody (antibody, human IgG1, kappa, L234A L235A, N297A, name in Kabat numbering)
heavy: B1 heavy with N31G, T78K
chain: B1 chain
light: B1 light
B25: CE115HA000 N53S one-arm antibody (antibody, human IgG1, kappa, L234A L235A, N297A, name in Kabat numbering)
heavy: B1 heavy with N56S, T78K
chain: B1 chain
light: B1 light
B26: CE115HA000 N53H one-arm antibody (antibody, human IgG1, kappa, L234A L235A, N297A, name in Kabat numbering)
heavy: B1 heavy with N56H, T78K
chain: B1 chain
light: B1 light
B27: CE115HA000 N31S one-arm antibody (antibody, human IgG1, kappa, L234A L235A, N297A, name in Kabat numbering)
heavy: B1 heavy with N31S, T78K
chain: B1 chain
light: B1 light
B28: CE115HA000 N53I one-arm antibody (antibody, human IgG1, kappa, L234A L235A, N297A, name in Kabat numbering)
heavy: B1 heavy with N56I, T78K
chain: B1 chain
light: B1 light
B29: CE115HA000 N54K one-arm antibody (antibody, human IgG1, kappa, L234A L235A, N297A, name in Kabat numbering)
heavy: B1 heavy with N57K, T78K
chain: B1 chain
light: B1 light
B30: CE115HA000 N54A one-arm antibody (antibody, human IgG1, kappa, L234A L235A, N297A, name in Kabat numbering)
heavy: B1 heavy with N57A, T78K
chain: B1 chain
light: B1 light
B31: CE115HA000 N53W one-arm antibody (antibody, human IgG1, kappa, L234A L235A, N297A, name in Kabat numbering)
heavy: B1 heavy with N56W, T78K
chain: B1 chain
light: B1 light

Changes are numbered by the printed parent chain. Names may count otherwise.

These results are taken from patent US20210388087A1 (Chugai, published 2021).

The target of the assay is T1, CD3 epsilon homodimer protein (UniProt P07766 23-126).
T1 construct: immobilized on Sensor chip CM4 by amine coupling; also called CD3 (CD3 epsilon)
T1 sequence (P07766 23-126): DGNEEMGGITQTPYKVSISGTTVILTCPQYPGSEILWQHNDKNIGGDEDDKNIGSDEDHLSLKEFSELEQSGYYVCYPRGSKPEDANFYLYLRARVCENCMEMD
The experiment in a line: SPR (Biacore T200), CD3 epsilon homodimer on CM4 chip, one-arm antibody as analyte, 25 C.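 Also: homodimer attached to the sensor surface via amine coupling, HBS-EP+ used as running buffer during binding runs.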 Background: Surface plasmon resonance follows binding to a sensor surface in real time, without labels.
Take B1: the “ratio of amounts bound (altered form / CE115HA000)” value came out at 0.84. Take B2: the “ratio of amounts bound (altered form / CE115HA000)” value worked out at 0.63. With B3 the figure was 0.7. B4: the “ratio of amounts bound (altered form / CE115HA000)” value stood at 0.78. B5: the “ratio of amounts bound (altered form / CE115HA000)” value is 0.63. Turning to B6, the “ratio of amounts bound (altered form / CE115HA000)” value came out at 0.64.

Consider B7, for which the “ratio of amounts bound (altered form / CE115HA000)” value came to 0.37. For the molecule B8, the “ratio of amounts bound (altered form / CE115HA000)” value came to 0.84. Take B9: the “ratio of amounts bound (altered form / CE115HA000)” value stood at 1.34. As to B10, the “ratio of amounts bound (altered form / CE115HA000)” value is 0.39. For the molecule B11, the “ratio of amounts bound (altered form / CE115HA000)” value was determined as 0.49. For B12, the “ratio of amounts bound (altered form / CE115HA000)” value was found to be 1.12.

As for B13, the “ratio of amounts bound (altered form / CE115HA000)” value was 0.5.

B14: the “ratio of amounts bound (altered form / CE115HA000)” value came to 0.62. Consider B15, for which the “ratio of amounts bound (altered form / CE115HA000)” value stood at 0.68. The same measure for B16: 0.98; for B17: 0.94. With B18 the figure was 0.81; with B19, 1.01. For B20, the “ratio of amounts bound (altered form / CE115HA000)” value was determined as 1.14.

With B21, the “ratio of amounts bound (altered form / CE115HA000)” value turned out to be 0.62. The same measure for B22: 0.5.

Take B23: the “ratio of amounts bound (altered form / CE115HA000)” value amounted to 1.1. With B24, the “ratio of amounts bound (altered form / CE115HA000)” value was 0.39. For the molecule B25, the “ratio of amounts bound (altered form / CE115HA000)” value was 0.83.

As to B26, the “ratio of amounts bound (altered form / CE115HA000)” value amounted to 0.76. Regarding B27, the “ratio of amounts bound (altered form / CE115HA000)” value is 0.81.

Regarding B28, the “ratio of amounts bound (altered form / CE115HA000)” value came out at 0.68. B29: the “ratio of amounts bound (altered form / CE115HA000)” value came to 1.2.

In the case of B30, the “ratio of amounts bound (altered form / CE115HA000)” value came to 0.85. On to B31, for which the “ratio of amounts bound (altered form / CE115HA000)” value was 0.88.
